Results reported in patent US20070161067A1 (STANFORD UNIVERSITY, published 2007).
One block for each molecule: values may come before it.

Tests used:
Assay in all cases: cell-based or functional assay
[1] = target: Cfluc-FKBP12, split site at amino acid position 455 of SEQ ID NO: 2 (Photinus pyralis) (UniProt P62942)
[2] = target: Cfluc-FKBP12, split site at amino acid position 420 of SEQ ID NO: 2 (Photinus pyralis) (UniProt P62942)
[3] = target: Cfluc-FKBP12, split site at amino acid position 437 of SEQ ID NO: 2 (Photinus pyralis) (UniProt P62942)
Cfluc-FKBP12, split site at amino acid position 437 of SEQ ID NO: 2 (Photinus pyralis), sequence (P62942 other isoform, or with tags, fused parts or gaps limits assumed): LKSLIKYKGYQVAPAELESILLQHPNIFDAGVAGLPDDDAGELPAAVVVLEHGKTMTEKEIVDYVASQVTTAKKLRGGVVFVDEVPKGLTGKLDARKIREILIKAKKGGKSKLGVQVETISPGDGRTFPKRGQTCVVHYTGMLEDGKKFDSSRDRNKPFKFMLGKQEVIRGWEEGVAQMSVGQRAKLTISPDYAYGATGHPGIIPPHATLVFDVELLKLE

[4] = target: Cfluc-FKBP12, split site at amino acid position 445 of SEQ ID NO: 2 (Photinus pyralis) (UniProt P62942)
Cfluc-FKBP12, split site at amino acid position 445 of SEQ ID NO: 2 (Photinus pyralis), sequence (P62942 other isoform, or with tags, fused parts or gaps limits assumed): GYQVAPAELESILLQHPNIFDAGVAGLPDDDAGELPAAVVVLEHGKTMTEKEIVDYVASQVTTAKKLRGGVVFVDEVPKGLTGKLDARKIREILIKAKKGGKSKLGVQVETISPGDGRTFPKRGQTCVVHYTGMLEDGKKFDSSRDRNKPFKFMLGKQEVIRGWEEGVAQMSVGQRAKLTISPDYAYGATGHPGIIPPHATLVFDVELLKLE

[5] = target: Cfluc (265-550 of SEQ ID NO: 2) (Photinus pyralis, UniProt P08659 265-550 = luciferase)
[6] = target: Cfluc (445-550 of SEQ ID NO: 2) (Photinus pyralis, UniProt P08659 446-550 = luciferase)
[7] = target: Cfluc (300-550 of SEQ ID NO: 2) (Photinus pyralis, UniProt P08659 300-550 = luciferase)
[8] = target: T1, Cfluc (500-550 of SEQ ID NO: 2) (Photinus pyralis, UniProt P08659 501-550 = luciferase)
T1 chain: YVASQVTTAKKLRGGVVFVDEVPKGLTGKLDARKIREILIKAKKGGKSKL

[9] = target: Cfluc (437-550 of SEQ ID NO: 2) (Photinus pyralis, UniProt P08659 438-550 = luciferase)
[10] = target: Cfluc (245-550 of SEQ ID NO: 2) (Photinus pyralis, UniProt P08659 245-550 = luciferase)

Cfluc-FKBP12, split site at amino acid position 420 of SEQ ID NO: 2 (Photinus pyralis), sequence (P62942 other isoform, or with tags, fused parts or gaps limits assumed): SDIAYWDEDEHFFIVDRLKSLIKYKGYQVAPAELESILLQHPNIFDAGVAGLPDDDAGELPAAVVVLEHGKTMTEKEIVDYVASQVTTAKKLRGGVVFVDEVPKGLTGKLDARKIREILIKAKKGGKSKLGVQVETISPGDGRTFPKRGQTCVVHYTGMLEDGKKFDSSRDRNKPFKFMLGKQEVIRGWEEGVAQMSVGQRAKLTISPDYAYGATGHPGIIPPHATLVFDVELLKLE
Cfluc-FKBP12, split site at amino acid position 455 of SEQ ID NO: 2 (Photinus pyralis), sequence (P62942 other isoform, or with tags, fused parts or gaps limits assumed): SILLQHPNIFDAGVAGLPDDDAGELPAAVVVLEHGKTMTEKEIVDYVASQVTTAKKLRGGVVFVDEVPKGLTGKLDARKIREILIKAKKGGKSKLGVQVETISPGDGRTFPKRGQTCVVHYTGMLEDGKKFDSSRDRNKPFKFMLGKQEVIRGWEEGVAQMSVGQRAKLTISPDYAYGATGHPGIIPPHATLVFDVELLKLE

firefly luciferase signal upon exposure to rapamycin, fold over the cells not exposed to rapamycin (co-transfected 293T cells) [3]: 40 fold
Molecule: FRB-Nfluc, split site at amino acid position 437 of SEQ ID NO: 2 (from UniProt P42345 2024-2113)

firefly luciferase signal upon exposure to rapamycin, fold over the cells not exposed to rapamycin (co-transfected 293T cells) [4]: 350 fold
Molecule: FRB-Nfluc, split site at amino acid position 445 of SEQ ID NO: 2 (from UniProt P42345 2024-2113)

average of photon max across six animals, 72 h [5]: 1.8 P/cm^2/sec/sr
bioluminescence signal of implanted co-transfected 293T cells in living mice, 24 h [5]: 0.3 P/cm^2/sec/sr
average of photon max across six animals, 72 h [6]: 0.7 P/cm^2/sec/sr
average of photon max across six animals, 72 h [7]: 1.9 P/cm^2/sec/sr
bioluminescence signal of implanted co-transfected 293T cells in living mice, 24 h [7]: 0.3 P/cm^2/sec/sr
average of photon max across six animals, 72 h [8]: 0.3 P/cm^2/sec/sr
average of photon max across six animals, 72 h [9]: 2.1 P/cm^2/sec/sr
average of photon max across six animals, 72 h [10]: 1.1 P/cm^2/sec/sr
bioluminescence signal of implanted co-transfected 293T cells in living mice, 24 h [10]: 0.3 P/cm^2/sec/sr
luciferase signal against the combination Nfluc 1-475 / Cfluc 265-550 (cell culture and animal study) [10]: 2 fold less
B1: Nfluc (1-475 of SEQ ID NO: 2) (other)
chain: MEDAKNIKKGPAPFYPLEDGTAGEQLHKAMKRYALVPGTIAFTDAHIEVNITYAEYFEMSVRLAEAMKRYGLNTNHRIVVCSENSLQFFMPVLGALFIGVAVAPANDIYNERELLNSMNISQPTVVFVSKKGLQKILNVQKKLPIIQKIIIMDSKTDYQGFQSMYTFVTSHLPPGFNEYDFVPESFDRDKTIALIMNSSGSTGLPKGVALPHRTACVRFSHARDPIFGNQIIPDTAILSVVPFHHGFGMFTTLGYLICGFRVVLMYRFEEELFLRSLQDYKIQSALLVPTLFSFFAKSTLIDKYDLSNLHEIASGGAPLSKEVGEAVAKRFHLPGIRQGYGLTETTSAILITPEGDDKPGGVGKVVPFFEAKVVDLDTGKTLGVNQRGELCVRGPMIMSGYVNNPEATNALIDKDGWLHSDIAYWDEDEHFFIVDRLKSLIKYKGYQVAPAELESILLQHPNIFDAGVAGLPDDD

Second part, the molecule before the results:

Molecule: FRB-Nfluc, split site at amino acid position 455 of SEQ ID NO: 2 (from UniProt P42345 2024-2113)
firefly luciferase signal upon exposure to rapamycin, fold over the cells not exposed to rapamycin (co-transfected 293T cells) [1]: 30 fold

Molecule: FRB-Nfluc, split site at amino acid position 420 of SEQ ID NO: 2 (from UniProt P42345 2024-2113)
firefly luciferase signal upon exposure to rapamycin, fold over the cells not exposed to rapamycin (co-transfected 293T cells) [2]: 10 fold
